The values below come from patent US20040005688.

Data set [1] has as its target T1, GST-DM5 (GST fusion of the 36 amino acid DM5 segment of Dsh, amino acids 214-249).
T1 chain: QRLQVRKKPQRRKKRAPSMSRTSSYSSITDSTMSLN

The target in data set [2] is T2, Dishevelled (Dsh) protein, endogenous, from Drosophila embryos and Clone-8 cells.
T2 chain: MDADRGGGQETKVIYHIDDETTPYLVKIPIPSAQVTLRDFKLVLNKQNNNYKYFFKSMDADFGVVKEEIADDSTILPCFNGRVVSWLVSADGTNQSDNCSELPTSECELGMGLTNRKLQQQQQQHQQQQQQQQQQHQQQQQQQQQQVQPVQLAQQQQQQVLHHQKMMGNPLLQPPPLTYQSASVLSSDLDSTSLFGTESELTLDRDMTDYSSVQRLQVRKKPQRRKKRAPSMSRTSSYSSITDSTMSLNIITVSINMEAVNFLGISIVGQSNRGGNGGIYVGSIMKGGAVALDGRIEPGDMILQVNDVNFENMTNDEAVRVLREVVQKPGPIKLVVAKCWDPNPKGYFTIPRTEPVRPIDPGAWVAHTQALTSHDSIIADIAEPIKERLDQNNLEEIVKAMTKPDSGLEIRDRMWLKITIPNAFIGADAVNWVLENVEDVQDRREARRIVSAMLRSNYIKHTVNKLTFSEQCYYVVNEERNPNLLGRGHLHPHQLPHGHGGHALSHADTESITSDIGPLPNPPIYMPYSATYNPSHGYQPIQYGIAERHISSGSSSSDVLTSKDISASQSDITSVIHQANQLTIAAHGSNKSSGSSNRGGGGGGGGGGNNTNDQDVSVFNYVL

B1: Dishevelled Associated Kinase (DAK), endogenous kinase activity from Drosophila embryo and Clone-8 cell lysates (protein)
chain: MSTAMRTTLQSVPEALPADSVSNGTASNVAAPAAPVSSATNAVPPLAAVSSTTATYATNSISTSSHSVKDQQQQQQQQQHDSANANIVSLPPTTTPVANTNTMMPIVTSSNSATSNSTAATPTPASGAAATGGVGSVSQGPATVSASAANTNHSHQHSHQHHHHVANNMTTDGARLSSNNSAVVASSAINHHHHHTPGSGVAPTVNKNVLSTHSAHPSAIKQRTSSAKGSPNMQMRSSAPMRWRATEEHIGKYKLIKTIGKGNFAKVKLAKHLPTGKEVAIKIIDKTQLNPGSLQKLFREVRIMKMLDHPNIVKLFQVIETEKTLYLIMEYASGGEVFDYLVLHGRMKEKEARVKFRQIVSAVQYCHQKRIIHRDLKAENLLLDSELNIKIADFGFSNEFTPGSKLDTFCGSPPYAAPELFQGKKYDGPEVDVWSLGVILYTLVSGSLPFDGSTLRELRERVLRGKYRIPFYMSTDCENLLRKFLVLNPAKRASLETIMGDKWMNMGFEEDELKPYIEPKADLADPKRIEALVAMGYNRSEIEASLSQVRYDDVFATYLLLGRKSTDPESDGSRSGSSLSLRNISGNDAGANAGSASVQSPTHRGVHRSISASSTKPSRRASSGAETLRVGPTNAAATVAAATGAVGAVNPSNNYNAAGSAADRASVGSNFKRQNTIDSATIKENTARLAAQNQRPASATQKMLTTADTTLNSPAKPRTATKYDPTNGNRTVSGTSGIIPRRSTTLYEKTSSTEKTNVIPAETKMASAVKSSRHFPRNVPSRSTFHSGQTRARNNTALEYSGTSGASGDSSHPGRMSFFSKLSSRFSKRPNQ
Turning to B1, the in-gel kinase assay entry in data set [1] is “A polypeptide of 110 kDa appeared to account for the major DAK activity and two polypeptides of approximately 125 and 64 kDa appeared to represent minor activity”. In addition, the “in vitro kinase assay of Dsh immunoprecipitates” value in data set [2] is on record as “Immunoprecipitated Dsh was phosphorylated in this assay”.
